{"source": "patent US6451759", "about": "(University of California, dated 2002)", "target": "T1, Fas on Jurkat T cells (human, UniProt P25445 26-335)", "T1 sequence (looked up)": "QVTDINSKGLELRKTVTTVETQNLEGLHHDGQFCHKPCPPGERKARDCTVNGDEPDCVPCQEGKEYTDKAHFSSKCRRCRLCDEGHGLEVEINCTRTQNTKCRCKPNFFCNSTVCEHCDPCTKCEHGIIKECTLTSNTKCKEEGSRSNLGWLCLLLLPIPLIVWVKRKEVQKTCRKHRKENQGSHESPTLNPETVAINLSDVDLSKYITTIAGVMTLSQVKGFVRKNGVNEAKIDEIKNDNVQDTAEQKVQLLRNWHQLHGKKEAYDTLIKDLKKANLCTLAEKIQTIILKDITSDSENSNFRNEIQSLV", "assay": "cell-based or functional assay"}
{"binder": "SQMHTASSLEKQIGHPSPPPEKKELRKVAHLTGKSN (ligand)", "note": "[deletion mutant 2 of human FasL]", "values": [{"measurement": "percent specific 51Cr release from Jurkat target cells (cytotoxicity assay, transfected COS-7 effector cells)", "result": "~2", "unit": "fold over wild-type FasL"}]}
